Consider one molecule from PMC549569.

The target in this data set is αCP1-KH3 (third KH domain of poly(C)-binding protein 1, PCBP1/hnRNP E1) (UniProt Q15365 279-356). The experiment in a line: SPR.

By Kd is commonly meant a measure of binding affinity in units of concentration. Low values mean a tighter complex, high ones a looser complex.

αCP1-KH3 (third KH domain of poly(C)-binding protein 1, PCBP1/hnRNP E1), sequence (Q15365 279-356): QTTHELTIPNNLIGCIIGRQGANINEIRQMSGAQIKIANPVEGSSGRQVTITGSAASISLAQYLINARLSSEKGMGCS

B1: AR mRNA 3'-UTR 30 nt UC-rich RNA (nt 3296-3325) (ssRNA)
RNA: CUCUCCUUUCUUUUUCUUCUUCCCUCCCUA
B1 displayed a Kd of 4.37 µM.
